Experimental data as given in patent US8357523B2, “Beta-glucosidase variant enzymes and related polynucleotides” (Codexis, Inc., priority 2009, dated 2013).

Test: High throughput cellobiose assay: fold improvement in cellobiase activity of CelA variants over a control enzyme (Tables 2A-2D, 3, 5, 6, 7)
Assay type: biochemical
Details: 3.3 g/l cellobiose, 50° C. and pH 6.5; compared to native CelA (SEQ ID NO: 4)

Row | Molecule | Fold improvement over wildtype CelA
1 | 19 (protein) STAIAQEGAAPAAILHPEKWPRPATQRLIDPAVEKRVDALLKQLSVEEKVGQVIQGDIGTITPEDLRKYPLGSILAGGNSGPNGDDRAPPKEWLDLADAFYRVSLEKRPGHTPIPVLFGIDAVHGHGNIGSATIFPHNIALGATHDPELLRRIGEVTAVEMAATGIDWTFAPALSVVRDDRWGRTYEGFSEDPEIVALYSAAIVEGVQGKFGSKDFMAPGRIVASAKHFLADGGTDQGRDQGDARISEDELIRIHNAGYPPAIDAGVLTVMASFSSWQGIKHHGHKQLLTDVLKGQMGFNGFIVGDWNAHDQVPGCTKFNCPTSLIAGLDMYMAADSWKQLYENTLAQVKDGTIPMARLDDAVRRILRVKVLAGLFEKPAPKDRPGLPGLETLGSPEHRAVGREAVRKSLVLLKNDKGTLPLSPKARVLVAGDGADNIGKQSGGWTISWQGTGNRNDEFPGATSILGGIRDAVADAGGSVEFDVAGQYKTKPDVAIVVFGEEPYAEFQGDVETLEYQPDQKQDLALLKKLKDQGIPVVAVFLSGRPMWVNPELNASDAFVAAWLPGTEGGGVADVLFTDKAGKVQHDFAGKLSYSWPRTAAQTTVNRGDADYNPLFAYGYGLTYKDKSKVGTLPEESGVPAEARQNAGIYFRAGALRLPGRFL | + (+ = 1.1 to 2.0 fold improvement over native CelA (SEQ ID NO: 4))
2 | 26 (protein) STAIAQEGAAPAAILHPEKWPRPATQRLIDPAVEKRVDALLKQLSVEEKVGQVIQGDIGTITPEDLRKYPLGSILAGGNSGPNGDDRAPPKEWLDLADAFYRVSLEKRPGHTPIPVLFGIDAVHGHGNIGSATIFPHNIALGATHDPELLRRIGEVTAVEMAATGIDWTFAPALSVVRDDRWGRTYEGFSEDPEIVAAYSAFIVEGVQGKFGSKDFMAPGRIVASAKHFLADGGTDQGRDQGDARISEDELIRIHNAGYPPAIDAGVLTVMASFSSWQGIKHHGHKQLLTDVLKGQMGFNGFIVGDWNAHDQVPGCTKFNCPTSLIAGLDMYMAADSWKQLYENTLAQVKDGTIPMARLDDAVRRILRVKVLAGLFEKPAPKDRPGLPGLETLGSPEHRAVGREAVRKSLVLLKNDKGTLPLSPKARVLVAGDGADNIGKQSGGWTISWQGTGNRNDEFPGATSILGGIRDAVADAGGSVEFDVAGQYKTKPDVAIVVFGEEPYAEFQGDVETLEYQPDQKQDLALLKKLKDQGIPVVAVFLSGRPMWVNPELNASDAFVAAWLPGTEGGGVADVLFTDKAGKVQHDFAGKLSYSWPRTAAQTTVNRGDADYNPLFAYGYGLTYKDKSKVGTLPEESGVPAEARQNAGIYFRAGALRLPGRFL | + (+ = 1.1 to 2.0 fold improvement over native CelA (SEQ ID NO: 4))
3 | 25 (protein) STAIAQEGAAPAAILHPEKWPRPATQRLIDPAVEKRVDALLKQLSVEEKVGQVIQGDIGTITPEDLRKYPLGSILAGGNSGPNGDDRAPPKEWLDLADAFYRVSLEKRPGHTPIPVLFGIDAVHGHGNIGSATIFPHNIALGATHDPELLPRIGEVTAVEMAATGIDWTFAPALSVVRDDRWGRTYEGFSEDPEIVAAYSAAIVEGVQGKFGSKDFMAPGRIVASAKHFLADGGTDQGRDQGDARISEDELIRIHNAGYPPAIDAGVLTVMASFSSWQGIKHHGHKQLLTDVLKGQMGFNGFIVGDWNAHDQVPGCTKFNCPTSLIAGLDMYMAADSWKQLYENTLAQVKDGTIPMARLDDAVRRILRVKVLAGLFEKPAPKDRPGLPGLETLGSPEHRAVGREAVRKSLVLLKNDKGTLPLSPKARVLVAGDGADNIGKQSGGWTISWQGTGNRNDEFPGATSILGGIRDAVADAGGSVEFDVAGQYKTKPDVAIVVFGEEPYAEFQGDVETLEYQPDQKQDLALLKKLKDQGIPVVAVFLSGRPMWVNPELNASDAFVAAWLPGTEGGGVADVLFTDKAGKVQHDFAGKLSYSWPRTAAQTTVNRGDADYNPLFAYGYGLTYKDKSKVGTLPEESGVPAEARQNAGIYFRAGALRLPGRFL | + (+ = 1.1 to 2.0 fold improvement over native CelA (SEQ ID NO: 4))
4 | 22 (protein) STAIAQEGAAPAAILHPEKWPRPATQRLIDPAVEKRVDALLKQLSVEEKVGQVIQGDIGTITPEDLRKYPLGSILAGGNSGPNGDDRAPPKEWLDLADAFYRVSLEKRPGHTPIPVLFGIDAVHGHGNIGSATIFPHNIALGATHDPELLRRIGEVTAIEMAATGIDWTFAPALSVVRDDRWGRTYEGFSEDPEIVAAYSAAIVEGVQGKFGSKDFMAPGRIVASAKHFLADGGTDQGRDQGDARISEDELIRIHNAGYPPAIDAGVLTVMASFSSWQGIKHHGHKQLLTDVLKGQMGFNGFIVGDWNAHDQVPGCTKFNCPTSLIAGLDMYMAADSWKQLYENTLAQVKDGTIPMARLDDAVRRILRVKVLAGLFEKPAPKDRPGLPGLETLGSPEHRAVGREAVRKSLVLLKNDKGTLPLSPKARVLVAGDGADNIGKQSGGWTISWQGTGNRNDEFPGATSILGGIRDAVADAGGSVEFDVAGQYKTKPDVAIVVFGEEPYAEFQGDVETLEYQPDQKQDLALLKKLKDQGIPVVAVFLSGRPMWVNPELNASDAFVAAWLPGTEGGGVADVLFTDKAGKVQHDFAGKLSYSWPRTAAQTTVNRGDADYNPLFAYGYGLTYKDKSKVGTLPEESGVPAEARQNAGIYFRAGALRLPGRFL | + (+ = 1.1 to 2.0 fold improvement over native CelA (SEQ ID NO: 4))
5 | 20 (protein) STAIAQEGAAPAAILHPEKWPRPATQRLIDPAVEKRVDALLKQLSVEEKVGQVIQGDIGTITPEDLRKYPLGSILAGGNSGPNGDDRAPPKEWLDLADAFYRVSLEKRPGHTPIPVLFGIDAVHGHGNIGSATIFPHNIALGATHDPELLRRIGEVTAVEMAATGIDWTFAPALSVVRDDRWGRTYEGFSEDPEIVANYSAAIVEGVQGKFGSKDFMAPGRIVASAKHFLADGGTDQGRDQGDARISEDELIRIHNAGYPPAIDAGVLTVMASFSSWQGIKHHGHKQLLTDVLKGQMGFNGFIVGDWNAHDQVPGCTKFNCPTSLIAGLDMYMAADSWKQLYENTLAQVKDGTIPMARLDDAVRRILRVKVLAGLFEKPAPKDRPGLPGLETLGSPEHRAVGREAVRKSLVLLKNDKGTLPLSPKARVLVAGDGADNIGKQSGGWTISWQGTGNRNDEFPGATSILGGIRDAVADAGGSVEFDVAGQYKTKPDVAIVVFGEEPYAEFQGDVETLEYQPDQKQDLALLKKLKDQGIPVVAVFLSGRPMWVNPELNASDAFVAAWLPGTEGGGVADVLFTDKAGKVQHDFAGKLSYSWPRTAAQTTVNRGDADYNPLFAYGYGLTYKDKSKVGTLPEESGVPAEARQNAGIYFRAGALRLPGRFL | + (+ = 1.1 to 2.0 fold improvement over native CelA (SEQ ID NO: 4))
6 | 24 (protein) STAIAQEGAAPAAILHPEKWPRPATQRLIDPAVEKRVDALLKQLSVEEKVGQVIQGDIGTITPEDLRKYPLGSILAGGNSGPNGDDRAPPKEWLDLADAFYRVSLEKRPGHTPIPVLFGIDAVHGHGNIGSATIFPHNIALGATHDPELLRRIGEVTAVEMAATGIDWTFAPALSVVRDDRWGRTYEGFSEDPEIVAAYSAAIVEGVQGKFGSKDFMAVGRIVASAKHFLADGGTDQGRDQGDARISEDELIRIHNAGYPPAIDAGVLTVMASFSSWQGIKHHGHKQLLTDVLKGQMGFNGFIVGDWNAHDQVPGCTKFNCPTSLIAGLDMYMAADSWKQLYENTLAQVKDGTIPMARLDDAVRRILRVKVLAGLFEKPAPKDRPGLPGLETLGSPEHRAVGREAVRKSLVLLKNDKGTLPLSPKARVLVAGDGADNIGKQSGGWTISWQGTGNRNDEFPGATSILGGIRDAVADAGGSVEFDVAGQYKTKPDVAIVVFGEEPYAEFQGDVETLEYQPDQKQDLALLKKLKDQGIPVVAVFLSGRPMWVNPELNASDAFVAAWLPGTEGGGVADVLFTDKAGKVQHDFAGKLSYSWPRTAAQTTVNRGDADYNPLFAYGYGLTYKDKSKVGTLPEESGVPAEARQNAGIYFRAGALRLPGRFL | + (+ = 1.1 to 2.0 fold improvement over native CelA (SEQ ID NO: 4))
7 | 23 (protein) STAIAQEGAAPAAILHPEKWPRPATQRLIDPAVEKRVDALLKQLSVEEKVGQVIQGDIGTITPEDLRKYPLGSILAGGNSGPNGDDRAPPKEWLDLADAFYRVSLEKRPGHTPIPVLFGIDAVHGHGNIGSATIFPHNIALGATHDPELLRRIGEVTAVEMAATGIDWTFAPALSVVRDDRWGRTYEGFSEDPEIVAAYSAPIVEGVQGKFGSKDFMAPGRIVASAKHFLADGGTDQGRDQGDARISEDELIRIHNAGYPPAIDAGVLTVMASFSSWQGIKHHGHKQLLTDVLKGQMGFNGFIVGDWNAHDQVPGCTKFNCPTSLIAGLDMYMAADSWKQLYENTLAQVKDGTIPMARLDDAVRRILRVKVLAGLFEKPAPKDRPGLPGLETLGSPEHRAVGREAVRKSLVLLKNDKGTLPLSPKARVLVAGDGADNIGKQSGGWTISWQGTGNRNDEFPGATSILGGIRDAVADAGGSVEFDVAGQYKTKPDVAIVVFGEEPYAEFQGDVETLEYQPDQKQDLALLKKLKDQGIPVVAVFLSGRPMWVNPELNASDAFVAAWLPGTEGGGVADVLFTDKAGKVQHDFAGKLSYSWPRTAAQTTVNRGDADYNPLFAYGYGLTYKDKSKVGTLPEESGVPAEARQNAGIYFRAGALRLPGRFL | + (+ = 1.1 to 2.0 fold improvement over native CelA (SEQ ID NO: 4))
8 | 21 (protein) STAIAQEGAAPAAILHPEKWPRPATQRLIDPAVEKRVDALLKQLSVEEKVGQVIQGDIGTITPEDLRKYPLGSILAGGNSGPNGDDRAPPKEWLDLADAFYRVSLEKRPGHTPIPVLFGIDAVHGHGNIGSATIFPHNIALGATHDPELLRRIGEVTAQEMAATGIDWTFAPALSVVRDDRWGRTYEGFSEDPEIVAAYSAAIVEGVQGKFGSKDFMAPGRIVASAKHFLADGGTDQGRDQGDARISEDELIRIHNAGYPPAIDAGVLTVMASFSSWQGIKHHGHKQLLTDVLKGQMGFNGFIVGDWNAHDQVPGCTKFNCPTSLIAGLDMYMAADSWKQLYENTLAQVKDGTIPMARLDDAVRRILRVKVLAGLFEKPAPKDRPGLPGLETLGSPEHRAVGREAVRKSLVLLKNDKGTLPLSPKARVLVAGDGADNIGKQSGGWTISWQGTGNRNDEFPGATSILGGIRDAVADAGGSVEFDVAGQYKTKPDVAIVVFGEEPYAEFQGDVETLEYQPDQKQDLALLKKLKDQGIPVVAVFLSGRPMWVNPELNASDAFVAAWLPGTEGGGVADVLFTDKAGKVQHDFAGKLSYSWPRTAAQTTVNRGDADYNPLFAYGYGLTYKDKSKVGTLPEESGVPAEARQNAGIYFRAGALRLPGRFL | + (+ = 1.1 to 2.0 fold improvement over native CelA (SEQ ID NO: 4))
